Ends that are not written are not given here.
T1: MBP-fused CAND1 (human, UniProt Q86VP6 1-1230)
T1 construct: Cullin-associated and neddylation-dissociated 1 (CAND1), human; cDNA bought from the Kazusa DNA Research Institute, in pMAL-C2; also called MBP-CAND1; source: E. coli Rosetta-Gami, purified (amylose resin, eluted with maltose)
T1 sequence (looked up): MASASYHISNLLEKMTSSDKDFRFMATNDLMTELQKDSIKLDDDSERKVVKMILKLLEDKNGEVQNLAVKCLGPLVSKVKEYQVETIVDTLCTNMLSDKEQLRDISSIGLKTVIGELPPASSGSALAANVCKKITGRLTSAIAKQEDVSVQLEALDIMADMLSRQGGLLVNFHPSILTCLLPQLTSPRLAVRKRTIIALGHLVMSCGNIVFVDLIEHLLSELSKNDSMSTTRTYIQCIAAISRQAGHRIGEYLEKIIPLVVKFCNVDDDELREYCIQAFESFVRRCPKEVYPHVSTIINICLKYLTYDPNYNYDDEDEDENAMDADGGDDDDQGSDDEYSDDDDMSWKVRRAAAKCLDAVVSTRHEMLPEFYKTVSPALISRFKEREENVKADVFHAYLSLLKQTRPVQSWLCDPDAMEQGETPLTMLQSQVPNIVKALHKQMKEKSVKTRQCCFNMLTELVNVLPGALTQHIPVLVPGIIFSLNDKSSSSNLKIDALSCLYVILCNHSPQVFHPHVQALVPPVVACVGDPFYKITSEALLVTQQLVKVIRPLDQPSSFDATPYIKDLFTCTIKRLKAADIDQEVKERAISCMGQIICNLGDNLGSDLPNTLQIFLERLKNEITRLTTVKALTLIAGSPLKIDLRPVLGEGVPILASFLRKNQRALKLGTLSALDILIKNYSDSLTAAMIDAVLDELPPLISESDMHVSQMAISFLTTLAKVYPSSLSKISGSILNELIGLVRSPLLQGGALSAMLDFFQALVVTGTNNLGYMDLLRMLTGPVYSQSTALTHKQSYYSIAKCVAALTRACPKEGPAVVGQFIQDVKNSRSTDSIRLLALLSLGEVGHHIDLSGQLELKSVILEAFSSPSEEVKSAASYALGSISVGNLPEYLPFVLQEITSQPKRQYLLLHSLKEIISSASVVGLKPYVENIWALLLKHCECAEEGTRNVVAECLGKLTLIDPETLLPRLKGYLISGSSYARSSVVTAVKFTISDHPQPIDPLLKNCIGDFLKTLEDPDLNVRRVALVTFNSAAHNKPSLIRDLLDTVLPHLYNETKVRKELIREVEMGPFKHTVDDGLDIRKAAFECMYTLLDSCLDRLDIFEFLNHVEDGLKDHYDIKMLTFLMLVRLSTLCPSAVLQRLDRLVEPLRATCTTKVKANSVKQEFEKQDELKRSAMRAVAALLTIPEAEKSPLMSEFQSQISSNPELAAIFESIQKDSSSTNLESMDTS

B1: His-Lnp ΔUb (Lnp lacking the N-terminal ubiquitin ligase domain) (domain or fragment, human, UniProt Q9C0E8 46-428, looked up)
chain: LILYSSVLYLFTCLIVYLWYLPDEFTARLAMTLPFFAFPLIIWSIRTVIIFFFSKRTERNNEALDDLKSQRKKILEEVMEKETYKTAKLILERFDPDSKKAKECEPPSAGAAVTARPGQEIRQRTAAQRNLSPTPASPNQGPPPQVPVSPGPPKDSSAPGGPPERTVTPALSSNVLPRHLGSPATSVPGMGLHPPGPPLARPILPRERGALDRIVEYLVGDGPQNRYALICQQCFSHNGMALKEEFEYIAFRCAYCFFLNPARKTRPQAPRLPEFSFEKRQVVEGSSSVGPLPSGSVLSSDNQFNEESLEHDVLDDNTEQTDDKIPATEQTNQVIEKASDSEEPEEKQETENEEASVIETNSTVPGADSIPDPELSGESLTAE
notes: lunapark (Lnp), human, lacking Lnp Ub (the N-terminal cytoplasmic domain, 1–45 aa), in pET28a(+); The start 46 follows from the printed limits of Lnp Ub (1–45 aa); source: E. coli BL21 (DE3), purified (Ni-agarose)

Key:
[1] = target: the molecule itself; test: sucrose density gradient ultracentrifugation; His-Lnp (0.6 nmol) alone or incubated with MBP-CAND1 (2 nmol) in buffer H (20 mM Tris-HCl pH 7.5, 150 mM NaCl, 1% Triton X-100), 10–40% (w/v) sucrose gradient, 200,000 x g, 4 °C, 20 h; 17 fractions, CBB staining
[2] = target: T1, MBP-fused CAND1; test: as above; conditions: both partners purified
[3] = target: T1, MBP-fused CAND1; test: pull-down; GST-Lnp or GST-Lnp Ub (0.6 nmol) immobilised on glutathione Sepharose, incubated with MBP-CAND1 (6 nmol) in buffer A with 1% Triton X-100, 4 °C 2 h; CBB staining; conditions: both partners purified
[4] = target: T1, MBP-fused CAND1; test: pull-down; His-Lnp WT or deletion mutants (0.5 nmol) immobilised on Ni-agarose, incubated with MBP-CAND1 or MBP alone (3 nmol) in buffer G with 10 mM imidazole, 4 °C 2 h; CBB staining; conditions: both partners purified
[5] = target: B1; test: pull-down; His-Lnp ΔUb (0.6 nmol) immobilised on Ni-agarose, incubated with GST-Lnp Ub (3 nmol) or GST alone, or with GST-Lnp Ub (1.2 nmol) and MBP-CAND1 or MBP alone (6 nmol), in buffer G with 20 mM imidazole and 1 mM DTT, 4 °C 2 h; CBB staining; conditions: both partners purified

binding result [4] | Binder | also measured
 | hexa histidine-tagged Lnp, wild type (natural protein, human, UniProt Q9C0E8 1-428, looked up, lunapark (Lnp), human; cDNA amplified from a human cDNA library, in pET28a(+); also called His-Lnp; His-Lnp WT; source: E. coli BL21 (DE3), purified (Ni-agarose)) MGGLFSRWRTKPSTVEVLESIDKEIQALEEFREKNQRLQKLWVGRLILYSSVLYLFTCLIVYLWYLPDEFTARLAMTLPFFAFPLIIWSIRTVIIFFFSKRTERNNEALDDLKSQRKKILEEVMEKETYKTAKLILERFDPDSKKAKECEPPSAGAAVTARPGQEIRQRTAAQRNLSPTPASPNQGPPPQVPVSPGPPKDSSAPGGPPERTVTPALSSNVLPRHLGSPATSVPGMGLHPPGPPLARPILPRERGALDRIVEYLVGDGPQNRYALICQQCFSHNGMALKEEFEYIAFRCAYCFFLNPARKTRPQAPRLPEFSFEKRQVVEGSSSVGPLPSGSVLSSDNQFNEESLEHDVLDDNTEQTDDKIPATEQTNQVIEKASDSEEPEEKQETENEEASVIETNSTVPGADSIPDPELSGESLTAE | binding result [1]: binds; binding result [2]: binds
 | GST-fused Lnp (lunapark) (natural protein, human, UniProt Q9C0E8 1-428, looked up, lunapark (Lnp), human; cDNA amplified from a human cDNA library, in pGEX-6P-1; the same cDNA was subcloned into all vectors; also called GST-Lnp; GST-Lnp WT; source: E. coli BL21 (DE3), purified (glutathione Sepharose)) MGGLFSRWRTKPSTVEVLESIDKEIQALEEFREKNQRLQKLWVGRLILYSSVLYLFTCLIVYLWYLPDEFTARLAMTLPFFAFPLIIWSIRTVIIFFFSKRTERNNEALDDLKSQRKKILEEVMEKETYKTAKLILERFDPDSKKAKECEPPSAGAAVTARPGQEIRQRTAAQRNLSPTPASPNQGPPPQVPVSPGPPKDSSAPGGPPERTVTPALSSNVLPRHLGSPATSVPGMGLHPPGPPLARPILPRERGALDRIVEYLVGDGPQNRYALICQQCFSHNGMALKEEFEYIAFRCAYCFFLNPARKTRPQAPRLPEFSFEKRQVVEGSSSVGPLPSGSVLSSDNQFNEESLEHDVLDDNTEQTDDKIPATEQTNQVIEKASDSEEPEEKQETENEEASVIETNSTVPGADSIPDPELSGESLTAE | binding result [3]: binds
binds | His-Lnp ΔCC (Lnp lacking the coiled-coil domain) (natural protein, human, UniProt Q9C0E8 1-428, looked up, lunapark (Lnp), human, lacking the coiled-coil domain (100–143 aa), in pET28a(+); source: E. coli BL21 (DE3), purified (Ni-agarose)) MGGLFSRWRTKPSTVEVLESIDKEIQALEEFREKNQRLQKLWVGRLILYSSVLYLFTCLIVYLWYLPDEFTARLAMTLPFFAFPLIIWSIRTVIIFFFSKKAKECEPPSAGAAVTARPGQEIRQRTAAQRNLSPTPASPNQGPPPQVPVSPGPPKDSSAPGGPPERTVTPALSSNVLPRHLGSPATSVPGMGLHPPGPPLARPILPRERGALDRIVEYLVGDGPQNRYALICQQCFSHNGMALKEEFEYIAFRCAYCFFLNPARKTRPQAPRLPEFSFEKRQVVEGSSSVGPLPSGSVLSSDNQFNEESLEHDVLDDNTEQTDDKIPATEQTNQVIEKASDSEEPEEKQETENEEASVIETNSTVPGADSIPDPELSGESLTAE | 
binds | His-Lnp ΔTM (transmembrane domains replaced by a (GGS)3 linker) (natural protein, human, lunapark (Lnp), human, the stretch before the transmembrane domains (45–100 aa); polypeptide linker (GGS)3 in place of residues 45–100; lunapark (Lnp), human, the stretch after the transmembrane domains (45–100 aa); source: E. coli BL21 (DE3), purified (Ni-agarose)) MGGLFSRWRTKPSTVEVLESIDKEIQALEEFREKNQRLQKLWVGGGSGGSGGSRTERNNEALDDLKSQRKKILEEVMEKETYKTAKLILERFDPDSKKAKECEPPSAGAAVTARPGQEIRQRTAAQRNLSPTPASPNQGPPPQVPVSPGPPKDSSAPGGPPERTVTPALSSNVLPRHLGSPATSVPGMGLHPPGPPLARPILPRERGALDRIVEYLVGDGPQNRYALICQQCFSHNGMALKEEFEYIAFRCAYCFFLNPARKTRPQAPRLPEFSFEKRQVVEGSSSVGPLPSGSVLSSDNQFNEESLEHDVLDDNTEQTDDKIPATEQTNQVIEKASDSEEPEEKQETENEEASVIETNSTVPGADSIPDPELSGESLTAE | 
binds | B1 | 
binds | His-Lnp ΔZn + LNPARK (Lnp lacking the zinc finger motif and the following LNPARK amino acids) (natural protein, human, UniProt Q9C0E8 1-428, looked up, lunapark (Lnp), human, lacking the zinc finger motif and the following LNPARK amino acids (275–309 aa), in pET28a(+); source: E. coli BL21 (DE3), purified (Ni-agarose)) MGGLFSRWRTKPSTVEVLESIDKEIQALEEFREKNQRLQKLWVGRLILYSSVLYLFTCLIVYLWYLPDEFTARLAMTLPFFAFPLIIWSIRTVIIFFFSKRTERNNEALDDLKSQRKKILEEVMEKETYKTAKLILERFDPDSKKAKECEPPSAGAAVTARPGQEIRQRTAAQRNLSPTPASPNQGPPPQVPVSPGPPKDSSAPGGPPERTVTPALSSNVLPRHLGSPATSVPGMGLHPPGPPLARPILPRERGALDRIVEYLVGDGPQNRYALTRPQAPRLPEFSFEKRQVVEGSSSVGPLPSGSVLSSDNQFNEESLEHDVLDDNTEQTDDKIPATEQTNQVIEKASDSEEPEEKQETENEEASVIETNSTVPGADSIPDPELSGESLTAE | 
 | {GST}-MGGLFSRWRTKPSTVEVLESIDKEIQALEEFREKNQRLQKLWVGR (domain or fragment, human, UniProt Q9C0E8 1-45, looked up, lunapark (Lnp), human, N-terminal cytoplasmic domain (1–45 aa, Ub), in pGEX-6P-1; source: E. coli BL21 (DE3), purified (glutathione Sepharose, eluted with glutathione)) [GST-Lnp Ub (N-terminal ubiquitin ligase domain of Lnp)] | binding result [5]: binds

Reference: paper PMC6739345, “CAND1 regulates lunapark for the proper tubular network of the endoplasmic reticulum” (Scientific Reports, 2019)
